Experimental data as given in the DeepSol protein solubility set.

Assay: soluble on expression in E. coli; label from the status in PepcDB or PDB records

Row | Sequence | soluble on expression in E. coli
1 | MLSALLIRNIRNASKLASVAGPNSDRIVNVKWSDGKTGVFPLIWLRDTSPDPSTYTISPAMTARKLTMLEFDVEQNARKLWIDEDANCLKIEWESGVLSEFPSEWLKIRNPSDQEARRRRRKVYLFPEQTWGKAEIEGKLKKFSHEEFMKNEQVVHDFLQAVCIDGIAVLKGAPQGVRGAVEAIGDRIGMIKRTHFGLVFEVSLKADASNMAYASNGGLPFHTDFPSLSHPPQLQMLHMLQSAEEGGHSLFVDGFHVAEQLRVEKPEIFKILTTQSMEYIEEGYDVHEINGKTIRFDYDMCARHKVIRLNDDGKVNKIQFGNAMRSWFYDCEPSKVQDVYRAMKTFTEYCYQPRNMLKFRLEDGDTVLWANQRLLHTRDGFRNAPEKARTLTGCYFDWDIVKSRVRFLRDKLSLEQNQPSA | not soluble
2 | MHRTYSLRNSRAPTASQLQNPPPPPSTTKGRFFGKGGLAYSFRRSAAGAFGPELSRKLSQLVKIEKNVLRSMELTANERRDAAKQLSIWGLENDDDVSDITDKLGVLIYEVSELDDQFIDRYDQYRLTLKSIRDIEGSVQPSRDRKDKITDKIAYLKYKDPQSPKIEVLEQELVRAEAESLVAEAQLSNITRSKLRAAFNYQFDSIIEHSEKIALIAGYGKALLELLDDSPVTPGETRPAYDGYEASKQIIIDAESALNEWTLDSAQVKPTLSFKQDYEDFEPEEGEEEEEEDGQGRWSEDEQEDGQIEEPEQEEEGAVEEHEQVGHQQSESLPQQTTA | soluble
3 | MNVVIVRYGEIGTKSRQTRSWFEKILMNNIREALVTEEVPYKEIFSRHGRIIVKTNSPKEAANVLVRVFGIVSISPAMEVEASLEKINRTALLMFRKKAKEVGKERPKFRVTARRITKEFPLDSLEIQAKVGEYILNNENCEVDLKNYDIEIGIEIMQGKAYIYTEKIKGWGGLPIGTEGRMIGILHDELSALAIFLMMKRGVEVIPVYIGKDDKNLEKVRSLWNLLKRYSYGSKGFLVVAESFDRVLKLIRDFGVKGVIKGLRPNDLNSEVSEITEDFKMFPVPVYYPLIALPEEYIKSVKERLGL | soluble
4 | SLSTRGINFLHQWIANNVPETTKPDAVSISEITHKLFSDAKALGIKREDIDEEVESLTAHCSIGLCISTLA | not soluble
5 | SLSKRLLSLASLALLFGCAQQPNDRAQQYQQQTFPHILNRADVVESNKPRDYTEFSKQSELVVQGSASMAKIYRPLYEQLNEWVLQSGDPATLAQFGIQAAQLGGGDKQGNVLFTGYFSPVIELRHQPDSVFKYPVYGLPKCNKNCPTRAEIYQGALDGQGLELGYAENLIDPFIMEVQGSGFVHFGDDDTLEYFAYAGKNNKAYVSIGKVLIERGLVEREKMSLKAIKDWVLANDEATVRELLEENPSFVFFKPSAAAPVKGSAGIPLLPMASVAGDRSILPMGTPILAEVPLLNADGTWSGAHQLRLLIVLDTGGAVKQNHLDLYHGMGPRAGLEAGHYKHFGRVWKLGLENSPTQAPWALPPEKQQ | not soluble
6 | MVKDKQKAIFSENLNSYIAKSEKTQLEIAKSIGVSPQTFNTWCKGIAIPRMGKVQALADYFNINKSDLIEDKKLNIDTVPIESGYTIPVLGRVAAGYGKEAVEEVIGQIEISPSMAAKGDYFGLLIKGDSMIPTLYDGDTVIVERTDDAESGDLVIALVNGSDATCKRLQKYAEGIALIPQNPVYEPMRFTESEIDTTPVKILGKVVEMRRKFLEHHHHHH | soluble
7 | MHHFSAGRSNSIGLRQSVSDKGIEIVNLLAPKVEMLGFDLLGAEYLLVPSGAILRLYIDIPFAMQPECMVSIDDCERVSREVSAYLDLEEPISGNYTLEVSSPGLDRRLFTLEQFARHHNHLVKVGLKLQQHGSRRLQGKIVRVEQVGGFVVLLVNGVELAVDFNNIDKARIVPDWSALGLAPLEKSKHDTKKMSQGSKKPSNESAARQAVRGVIR | not soluble
8 | MGHHHHHHSHAPNCTRKSTQSDLAFFRFPRDPARCQKWVENCRRADLEDKTPDQLNKHYRLCAKHFETSMICRTSPYRTVLRDNAIPTIFDLTSHLNNP | not soluble
9 | MAKKTKQRRPMGFPPGPPGLPFIGNIYSLAASSELPHVYMRKQSQVYGEIFSLDLGGISTVVLNGYDVVKECLVHQSEIFADRPCLPLFMKMTKMGGLLNSRYGRGWVDHRRLAVNSFRYFGYGQKSFESKILEETKFFNDAIETYKGRPFDFKQLITNAVSNITNLIIFGERFTYEDTDFQHMIELFSENVELAASASVFLYNAFPWIGILPFGKHQQLFRNAAVVYDFLSRLIEKASVNRKPQLPQHFVDAYLDEMDQGKNDPSSTFSKENLIFSVGELIIAGTETTTNVLRWAILFMALYPNIQGQVQKEIDLIMGPNGKPSWDDKCKMPYTEAVLHEVLRFCNIVPLGIFHATSEDAVVRGYSIPKGTTVITNLYSVHFDEKYWRDPEVFHPERFLDSSGYFAKKEALVPFSLGRRHCLGEHLARMEMFLFFTALLQRFHLHFPHELVPDLKPRLGMTLQPQPYLICAERRHHHHHH | soluble
10 | MIEERFDAIVVGAGMAGNAAALTMAKRGLKVLQIERGEYPGSKNVQGAILYADMLEKLVPDFREDAPLERHLVEQRFWMMDGKSHTGLHHRSEDFNEEKPNRYTIIRAQFDKWLSSKAQEAGAIVLCETTVKELVQDAYGKVIGVITDREGGQVHADVVVLAEGVNGLLGTKAELRERPTPENVALAVKEMHFLPRETIEARFNLKGDEGVVIEAAGTISAGMTGMGFIYTNKESISIGIGCLVSDFQKTGETPYGLLERFKKHPSVAPLIEGSEVKEYAGHLIPEGGYNAIPQLYGDGWVVVGDAAQLNNAMHREGSNLAMTSGRIAAEAIFQVKSRKDPMTKENLALYKKMLDDSFVIKDLKKYKDMPDLLHIRSQNFFLTYPQLVNKALQNFVRVDGTPKIEKEKTTIKSFVSARSWGGLFGDAFRFARAWR | not soluble
11 | MKVEKFKVLLYLKKSGLDKNGKAPIMGRITLNRTMAQFGCKLSCTPKLWNPRESRLDGKSKEAVEVNAKIDKLLLAINSAYESLVERKTDFDAKAIKDLFQCSADTQMTLLKQLDAIIADIESRIGIDYKKGTLPNYQYTRLTLGLFVKKRYGTDDVAFGELDEQFIREYMDFCLDERGLALDTVRHYLAILKKTCRIAFKAGHSERYHFMHFKLPQKKENPPKALTREDFLKIRDLEIPERRKSLALTRDLFLFACYTGTAYADTVSITEENLFRDEEGSLWLKYHRKKNKMLARVKLLPEALAMLEKYKDPTRPTLLPPQEFRVLRGNM | not soluble
12 | MSMSQSRAVQRSSSPNEDRGENQLVVYDLKGNDDTEEEVLPVQSQPLSSRTQCPSIGAFTVQCASCFKWRLMPSMQKYEEIREQLLENPFFCDTAREWKPDISCDVPADIYQDGTRLWAIDKPNISRPPAGWQRLLRIRGEGGTRFADVYYVAPSGKKLRSTVEVQKYLNDNSEYIGEGVKLSQFSFQIPKPLQDDYVRKRPARLLDSIDNTNTPVAKEANPLAWISPDDHISLQLGTPTESGLNNSHYQPSKKKKTSTLSIFGSNDELADR | soluble
13 | MPTPFDVTILGGGLAGRLCAWQLAQTGVPPARIAVVERGARDGSGSAAYVAAAMLAPLAEAAVADRFVVELGLASLTLWRDWLPMLRTPVFFQQAGTLVVWHPADRGEASLFANHVRAATPPERIAADLRAVDAEGIGTLEPALAQRFSQGLYLAGEGQLDNRAVLDALATELEALGVQLRWNTAVADPHPQALAAAGLGARLVLDCRGLGAQPQWPQLRGLRGEVARIHAPDVTLTRPVRMLHPRYPIYIAPKPGHVYVIGATEIESDDMSPVSVRSTLELLSAAYAVHPAFGEARVLELCTQCRPTLPDHRPAIRWDGAGTLSVNGLYRHGYMIAPAVAQAAVAAAHALLDGRAIDAPASAWPGLFAAPASPEPVLPLEHHHHHH | soluble
14 | MRGGVESTSTACATGLHCIGNSFRSIRYGDSRRALAGAVECALNPIALAGFDRMRALARGDQPNISRPFDKKRAGFVMSEGVGLVFMERLEDAQARGAQILAEVVGYGISSDCYHISTPDPSAIGAVLSMNRAIGNAHLEPKDIGYVNAHATSTPNGDSVEAEAVRQVFPEQNIAVSSVKGHIGHLLGAAGSVEAIATIFAMNDDVLPANRNLEETDEGNGLNLLRENQKWSDVSGNKSRISICNSFGFGATNASLILKQF | not soluble
15 | MSLAAELLIATGEYAPWTGEQLPDGGYVNRVVREAFAREGVQVRFAYMPWARALEALRNGNAQASSFWYDDPVKAKEFLYSAPISEHRELLFHRKDVTVPPWRKLRDLRGLRFGATHGYTYTAEFRQLMKQGALNVEEANDDKINLLKMLAGRIELFPLDEFTGWQLLTSDAFPRGAHDLVTTEARPFSIQYGHLLMPRSARNEQLMARFNAGLARLRADGTLERFRLDLYRGSGMGEGHHHHHH | soluble
